Measured values published in publication PMC9482650, “Quantitative fragmentomics allow affinity mapping of interactomes” (Nature Communications, 2022).

Columns and labels:
Experiment in all cases: holdup assay
Parameters in all cases: key: below the threshold = too weak to quantify, mostly under pKd 3.1 to 4
Inadl_4, Q8NI35 = biological target: Inadl_4, Q8NI35
LNX2_3, Q8N448 = biological target: T1, LNX2_3, Q8N448
T1 sequence (Q8N448 463-564, limits assumed, looked up): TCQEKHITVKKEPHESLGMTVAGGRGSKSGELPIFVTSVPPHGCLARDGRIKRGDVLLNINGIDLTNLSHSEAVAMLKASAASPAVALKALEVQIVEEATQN

MAGI1_1, Q96QZ7 = biological target: MAGI1_1, Q96QZ7
SNX27, Q96L92 = biological target: SNX27, Q96L92
TJP1_2, Q07157 = biological target: TJP1_2, Q07157
GOPC, Q9HD26 = biological target: GOPC, Q9HD26
GRIP2_4, Q9C0E4 = biological target: GRIP2_4, Q9C0E4
LNX2_2, Q8N448 = biological target: T2, LNX2_2, Q8N448
T2 sequence (Q8N448 334-432, limits assumed, looked up): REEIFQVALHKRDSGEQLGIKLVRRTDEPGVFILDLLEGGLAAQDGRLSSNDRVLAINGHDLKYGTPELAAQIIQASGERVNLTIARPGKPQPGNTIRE

GORASP2, Q9H8Y8 = biological target: GORASP2, Q9H8Y8
GRID2IP_2, A4D2P6 = biological target: GRID2IP_2, A4D2P6
APBA2_2, Q99767 = biological target: T3, APBA2_2, Q99767
T3 sequence (Q99767 654-744, limits assumed, looked up): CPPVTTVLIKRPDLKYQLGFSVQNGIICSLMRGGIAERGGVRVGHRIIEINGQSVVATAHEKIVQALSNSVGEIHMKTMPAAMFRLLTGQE

IL16_3, Q14005 = biological target: IL16_3, Q14005
DFNB31_3, Q9P202 = biological target: T4, DFNB31_3, Q9P202
T4 sequence (Q9P202 811-907, limits assumed, looked up): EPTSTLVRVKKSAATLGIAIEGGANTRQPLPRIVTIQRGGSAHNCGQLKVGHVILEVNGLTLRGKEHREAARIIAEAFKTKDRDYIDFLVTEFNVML

TJP1_3, Q07157 = biological target: TJP1_3, Q07157
MAST1, Q9Y2H9 = biological target: MAST1, Q9Y2H9
NHERF3_3, Q5T2W1 = biological target: T5, NHERF3_3, Q5T2W1
T5 sequence (Q5T2W1 238-333, limits assumed, looked up): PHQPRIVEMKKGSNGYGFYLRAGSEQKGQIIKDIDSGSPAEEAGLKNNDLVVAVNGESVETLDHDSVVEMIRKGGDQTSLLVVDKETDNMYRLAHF

Inadl_1, Q8NI35 = biological target: Inadl_1, Q8NI35
MPDZ_10, O75970 = biological target: T6, MPDZ_10, O75970
T6 sequence (O75970 1624-1722, limits assumed, looked up): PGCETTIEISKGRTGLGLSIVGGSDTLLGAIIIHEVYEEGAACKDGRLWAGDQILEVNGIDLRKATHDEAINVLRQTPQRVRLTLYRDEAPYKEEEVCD

Inadl_9, Q8NI35 = biological target: Inadl_9, Q8NI35
HTRA3, P83110 = biological target: T7, HTRA3, P83110
T7 sequence (P83110 354-453, limits assumed, looked up): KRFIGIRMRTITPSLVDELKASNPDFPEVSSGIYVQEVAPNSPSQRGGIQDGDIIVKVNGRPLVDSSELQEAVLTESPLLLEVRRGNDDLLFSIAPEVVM

GRIP2_5, Q9C0E4 = biological target: GRIP2_5, Q9C0E4
MAGI3_2, Q5TCQ9 = biological target: MAGI3_2, Q5TCQ9
Inadl_5, Q8NI35 = biological target: Inadl_5, Q8NI35
PICK1, Q9NRD5 = biological target: PICK1, Q9NRD5
HTRA2, O43464 = biological target: HTRA2, O43464
DFNB31_2, Q9P202 = biological target: T8, DFNB31_2, Q9P202
T8 sequence (Q9P202 274-371, limits assumed, looked up): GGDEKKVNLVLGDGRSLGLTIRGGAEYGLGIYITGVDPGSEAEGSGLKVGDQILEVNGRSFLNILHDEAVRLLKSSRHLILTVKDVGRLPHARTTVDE

DLG1_3, Q12959 = biological target: DLG1_3, Q12959
HTRA1, Q92743 = biological target: HTRA1, Q92743
ARHGEF11, O15085 = biological target: T9, ARHGEF11, O15085
T9 sequence (O15085 42-136, limits assumed, looked up): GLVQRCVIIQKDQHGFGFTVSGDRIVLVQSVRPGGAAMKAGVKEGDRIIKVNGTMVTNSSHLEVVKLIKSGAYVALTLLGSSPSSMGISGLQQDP

[1] = plain residues with an end cap or a label only (N-terminal biotin on a linker: ado-ado)
[2] = plain residues with an end cap or a label only (N-terminal biotin on a linker: ttds)

MAGI1_1, Q96QZ7, sequence (Q96QZ7 1-106): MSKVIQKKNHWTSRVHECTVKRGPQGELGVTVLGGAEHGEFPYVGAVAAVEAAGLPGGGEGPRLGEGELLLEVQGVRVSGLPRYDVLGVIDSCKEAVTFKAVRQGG
DLG1_3, Q12959, sequence (Q12959 457-571): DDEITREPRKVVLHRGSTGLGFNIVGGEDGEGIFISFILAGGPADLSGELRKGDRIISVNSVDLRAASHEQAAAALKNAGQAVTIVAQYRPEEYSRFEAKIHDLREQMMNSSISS
GRID2IP_2, A4D2P6, sequence (A4D2P6 272-370): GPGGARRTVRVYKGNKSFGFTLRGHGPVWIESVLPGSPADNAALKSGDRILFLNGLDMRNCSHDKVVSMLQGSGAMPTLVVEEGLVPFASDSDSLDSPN
TJP1_2, Q07157, sequence (Q07157 181-274): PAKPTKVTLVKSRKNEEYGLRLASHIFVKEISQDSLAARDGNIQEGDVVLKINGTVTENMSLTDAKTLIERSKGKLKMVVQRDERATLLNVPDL
Inadl_4, Q8NI35, sequence (Q8NI35 547-651): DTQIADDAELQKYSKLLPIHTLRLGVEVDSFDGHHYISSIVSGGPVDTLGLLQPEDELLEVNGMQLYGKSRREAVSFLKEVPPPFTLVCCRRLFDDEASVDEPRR
MAST1, Q9Y2H9, sequence (Q9Y2H9 962-1065): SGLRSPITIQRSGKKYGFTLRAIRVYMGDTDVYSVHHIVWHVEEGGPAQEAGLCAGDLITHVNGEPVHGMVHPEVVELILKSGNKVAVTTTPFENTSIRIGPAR
Inadl_9, Q8NI35, sequence (Q8NI35 1530-1615): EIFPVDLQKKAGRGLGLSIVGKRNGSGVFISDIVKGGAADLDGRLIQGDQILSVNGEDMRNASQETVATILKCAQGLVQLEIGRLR
PICK1, Q9NRD5, sequence (Q9NRD5 17-115): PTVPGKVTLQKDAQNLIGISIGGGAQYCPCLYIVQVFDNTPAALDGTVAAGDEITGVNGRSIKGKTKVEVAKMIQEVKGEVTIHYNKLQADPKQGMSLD
HTRA2, O43464, sequence (O43464 355-458): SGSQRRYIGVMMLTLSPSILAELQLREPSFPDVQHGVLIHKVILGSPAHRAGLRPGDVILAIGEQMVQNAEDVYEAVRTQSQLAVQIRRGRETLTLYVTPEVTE
TJP1_3, Q07157, sequence (Q07157 416-512): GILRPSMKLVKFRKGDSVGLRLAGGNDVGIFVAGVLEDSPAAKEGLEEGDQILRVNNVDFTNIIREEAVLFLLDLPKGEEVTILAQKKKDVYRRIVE
Inadl_5, Q8NI35, sequence (Q8NI35 673-780): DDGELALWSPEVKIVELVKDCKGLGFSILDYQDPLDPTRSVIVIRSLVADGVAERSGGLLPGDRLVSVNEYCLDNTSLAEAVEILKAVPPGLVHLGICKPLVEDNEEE
IL16_3, Q14005, sequence (Q14005 1107-1207): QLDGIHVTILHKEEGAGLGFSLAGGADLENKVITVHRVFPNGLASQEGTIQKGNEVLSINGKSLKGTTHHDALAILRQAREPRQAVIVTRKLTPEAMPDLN
Inadl_1, Q8NI35, sequence (Q8NI35 113-229): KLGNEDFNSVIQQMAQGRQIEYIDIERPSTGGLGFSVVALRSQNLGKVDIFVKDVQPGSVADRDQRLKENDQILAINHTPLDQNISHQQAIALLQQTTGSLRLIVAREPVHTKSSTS
GRIP2_5, Q9C0E4, sequence (Q9C0E4 544-642): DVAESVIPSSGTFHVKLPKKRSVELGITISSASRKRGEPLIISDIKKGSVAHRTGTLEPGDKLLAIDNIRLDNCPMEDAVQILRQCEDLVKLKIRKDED
MAGI3_2, Q5TCQ9, sequence (Q5TCQ9 398-503): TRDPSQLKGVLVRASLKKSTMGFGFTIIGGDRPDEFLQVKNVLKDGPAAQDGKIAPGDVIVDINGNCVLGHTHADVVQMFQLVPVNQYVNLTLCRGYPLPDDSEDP
GRIP2_4, Q9C0E4, sequence (Q9C0E4 446-548): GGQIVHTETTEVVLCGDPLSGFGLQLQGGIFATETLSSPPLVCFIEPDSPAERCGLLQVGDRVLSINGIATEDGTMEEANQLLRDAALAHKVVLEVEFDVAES
HTRA1, Q92743, sequence (Q92743 360-477): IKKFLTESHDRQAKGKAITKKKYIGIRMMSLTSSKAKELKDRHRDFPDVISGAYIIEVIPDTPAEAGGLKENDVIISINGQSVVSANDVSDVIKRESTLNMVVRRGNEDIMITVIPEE

Binder: EDLTKNHDEL [RCN1, Q15293]
- pKd (Inadl_4, Q8NI35; [1]): below the threshold
- pKd (LNX2_3, Q8N448; [1]): 3.51
- pKd (MAGI1_1, Q96QZ7; [1]): 3.62
- pKd (SNX27, Q96L92; [1]): 4
- pKd (TJP1_2, Q07157; [1]): below the threshold
- pKd (GOPC, Q9HD26; [1]): 3.52
- pKd (GRIP2_4, Q9C0E4; [1]): below the threshold
- pKd (LNX2_2, Q8N448; [1]): below the threshold
- pKd (GORASP2, Q9H8Y8; [1]): below the threshold
- pKd (GRID2IP_2, A4D2P6; [1]): 3.48
- pKd (APBA2_2, Q99767; [1]): below the threshold
- pKd (IL16_3, Q14005; [1]): below the threshold
- pKd (DFNB31_3, Q9P202; [1]): below the threshold
- pKd (TJP1_3, Q07157; [1]): 3.48
- pKd (MAST1, Q9Y2H9; [1]): 3.91
- pKd (NHERF3_3, Q5T2W1; [1]): below the threshold
- pKd (Inadl_1, Q8NI35; [1]): below the threshold
- pKd (MPDZ_10, O75970; [1]): below the threshold
- pKd (Inadl_9, Q8NI35; [1]): below the threshold
- pKd (HTRA3, P83110; [1]): below the threshold
- pKd (GRIP2_5, Q9C0E4; [1]): below the threshold
- pKd (MAGI3_2, Q5TCQ9; [1]): below the threshold
- pKd (Inadl_5, Q8NI35; [1]): below the threshold
- pKd (PICK1, Q9NRD5; [1]): below the threshold
- pKd (HTRA2, O43464; [1]): below the threshold
- pKd (DFNB31_2, Q9P202; [1]): below the threshold
- pKd (DLG1_3, Q12959; [1]): 3.8
- pKd (HTRA1, Q92743; [1]): 3.5
- pKd (ARHGEF11, O15085; [1]): 3.79

Binder: LDSQIQETSI [MAP4, P27816]
- pKd (Inadl_4, Q8NI35; [2]): below the threshold
- pKd (LNX2_3, Q8N448; [2]): below the threshold
- pKd (MAGI1_1, Q96QZ7; [2]): below the threshold
- pKd (SNX27, Q96L92; [2]): 5.73
- pKd (TJP1_2, Q07157; [2]): below the threshold
- pKd (GOPC, Q9HD26; [2]): 4.14
- pKd (GRIP2_4, Q9C0E4; [2]): below the threshold
- pKd (LNX2_2, Q8N448; [2]): below the threshold
- pKd (GORASP2, Q9H8Y8; [2]): below the threshold
- pKd (GRID2IP_2, A4D2P6; [2]): 4.29
- pKd (APBA2_2, Q99767; [2]): below the threshold
- pKd (IL16_3, Q14005; [2]): below the threshold
- pKd (DFNB31_3, Q9P202; [2]): below the threshold
- pKd (TJP1_3, Q07157; [2]): below the threshold
- pKd (MAST1, Q9Y2H9; [2]): 4.56
- pKd (NHERF3_3, Q5T2W1; [2]): below the threshold
- pKd (Inadl_1, Q8NI35; [2]): below the threshold
- pKd (MPDZ_10, O75970; [2]): below the threshold
- pKd (Inadl_9, Q8NI35; [2]): below the threshold
- pKd (HTRA3, P83110; [2]): below the threshold
- pKd (GRIP2_5, Q9C0E4; [2]): below the threshold
- pKd (MAGI3_2, Q5TCQ9; [2]): 3.57
- pKd (Inadl_5, Q8NI35; [2]): below the threshold
- pKd (PICK1, Q9NRD5; [2]): below the threshold
- pKd (HTRA2, O43464; [2]): below the threshold
- pKd (DFNB31_2, Q9P202; [2]): below the threshold
- pKd (DLG1_3, Q12959; [2]): 4.06
- pKd (HTRA1, Q92743; [2]): below the threshold
- pKd (ARHGEF11, O15085; [2]): below the threshold
